Data as given in paper PMC4417174.

System: PU.1ΔN167 (ETS domain) (murine)
Assay: DMS footprinting
Settings: saturating protein; Footprinting: 10 mM Tris-HCl pH 7.4, 150 mM NaCl, 0.1 mM EDTA, 0.5 g/l BSA, 0.1 g/l salmon sperm DNA; EMSA: 12% PAGE, 1x TBE, 0.1-10 uM protein; DLS: PBS, 25 C.

Substance: PU.1 high-affinity site, 206-bp footprinting fragment
- binding signal (% protection of core guanines vs unbound): 90
